Test results from US20180118848A1.

Molecular target: human MUC16 (mucin 16) (human)
Test: MSD ECL cell binding, RLU ratio OVCAR-3 vs SK-OV-3, […] Ab; NS = ratio <2.5-fold

Ratio anti-MUC16 Binding OVCAR-3/SK-OV-3, < 2.5:
mIgG2a Isotype Control Antibody
hIgG1 Isotype Control Antibody
mIgG1 Isotype Control Antibody
